Assay [1] has as its target T1, FcgRIIIa V extracellular domain with C-terminal His tag (human, UniProt P08637 17-208).
T1 construct: extracellular domain; also called FcγRIIIa V; FcγRIIIa (V158); not shown: His tag attached to the C terminus
Description: SPR (Biacore), antibody captured on chip, FcγR extracellular domain as analyte, kinetic analysis. The protocol: (§1) Analysis of interaction between obj ective antibody and the FcγR was carried out using Biacore T100 (GE Healthcare), Biacore T200, Biacore A100, and Biacore 4000. HBS-EP+ (GE Healthcare) was used as the running buffer, and the measurement temperature was set to 25° C. Chips produced by immobilizing the antigen peptide by the amine coupling method to a Series S sensor Chip CM5 (GE Healthcare), chips produced by allowing preliminarily biotinylated antigen peptides to interact with and immobilize onto a Series S Sensor Chip SA (certified) (GE Healthcare), chips produced by immobilizing Protein L (ACTIGEN, BioVision) to Series S Sencor Chip CM5 (GE Healthcare), or chips produced by immobilizing Protein A/G (Thermo Scientific) to Series S Sencor Chip CM5 (GE Healthcare) were used. Antibodies of interest were captured onto these chips, and allowed to interact to each FcγR diluted with running buffer. To regenerate and repeatedly use the chip, the antibodies captured onto the chip were washed off by reacting 10 mM glycine-HCl, pH 1.5.
In general terms: SPR reads the build-up and loss of mass on a sensor chip optically.

Assay [2] deals with T2, FcgRIIIa F extracellular domain with C-terminal His tag (human, UniProt P08637 17-208).
T2 construct: extracellular domain; also called FcγRIIIa F; FcγRIIIa (F158); not shown: His tag attached to the C terminus
The description is as above. On the procedure: as §1

Assay [3] has as its target T3, FcgRIIa R extracellular domain with C-terminal His tag (human, UniProt P12318 34-217).
T3 construct: extracellular domain; also called FcγRIIa R; FcγRIIa type R; not shown: His tag attached to the C terminus
T3 sequence (looked up): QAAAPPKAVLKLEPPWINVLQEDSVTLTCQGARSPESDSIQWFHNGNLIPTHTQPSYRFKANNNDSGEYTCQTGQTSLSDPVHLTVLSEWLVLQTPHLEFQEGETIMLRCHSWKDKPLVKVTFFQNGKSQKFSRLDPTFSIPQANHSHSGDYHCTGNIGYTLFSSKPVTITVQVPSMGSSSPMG
The assay is described as above. On the procedure: as §1

Assay [4] concerns the target T4, FcgRIIa H extracellular domain with C-terminal His tag (human, UniProt P12318 34-217).
T4 construct: extracellular domain; also called FcγRIIa H; FcγRIIa type H; not shown: His tag attached to the C terminus
T4 sequence (looked up): T3 sequence (looked up) with R134H
Described as above. On the procedure: as §1

In assay [5] the target is T1, FcgRIIIa V extracellular domain with …. The assay is described as above. The protocol:
as §1
This is another data set of the same source.

Assay [6] deals with T2, FcgRIIIa F extracellular domain with …. The description is as above. The protocol: as §1
This is another data set of the same source.

In assay [7] the target is T5, FcgRIIb extracellular domain with C-terminal His tag (human, UniProt P31994 43-217).
T5 construct: extracellular domain; also called FcγRIIb; not shown: His tag attached to the C terminus
T5 sequence (looked up): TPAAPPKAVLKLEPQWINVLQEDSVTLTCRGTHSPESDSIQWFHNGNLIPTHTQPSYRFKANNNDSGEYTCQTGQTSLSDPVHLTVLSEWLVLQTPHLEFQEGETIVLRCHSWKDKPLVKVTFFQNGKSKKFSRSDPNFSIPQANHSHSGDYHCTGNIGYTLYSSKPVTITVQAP
The assay is described as above. The protocol: as §1

Assay [8] deals with T6, FcgRIa extracellular domain with C-terminal His tag (human, UniProt P12314 16-292).
T6 construct: extracellular domain; Expressed in FreeStyle293 cells; used as analyte in Biacore; also called FcγRIa; FcγRI; not shown: His tag attached to the C terminus
The assay is described as above. The protocol:
as §1

Assay [9] addresses T7, FcgRIIIa F (human, UniProt P08637 17-208).
T7 construct: extracellular domain; also called FcγRIIIa F; not shown: His tag attached to the C terminus
Description: SPR (Biacore), antibody captured on chip, FcgR extracellular domain as analyte. On the procedure:
(§2) Similarly, H240-AK072 and L73-k0, and H240-BH076 and L73-k0 were each combined to express and prepare the homodimerized antibodies H240-AK072/L73-k0 and H240-BH076/L73-k0. The antibodies were compared for the binding to each FcgR according to the method described in Reference Example 8.
as §1

Assay [10] addresses T8, FcgRIIIa V (human, UniProt P08637 17-208).
T8 construct: extracellular domain; also called FcγRIIIa V; not shown: His tag attached to the C terminus
Described as above. The protocol:
as §2, §1

Assay [11] has as its target T7, FcgRIIIa F. The assay is described as above. On the procedure: as §1
This is another data set of the same source.

Assay [12] has as its target T8, FcgRIIIa V. The assay is described as above. The protocol: as §1
This is another data set of the same source.

A further assay concerns the target T9, FcgRIa (human, UniProt P12314 16-292).
T9 construct: extracellular domain; Expressed in FreeStyle293 cells and purified; used as analyte in Biacore; also called FcγRIa; FcγRI; not shown: His tag attached to the C terminus
The assay is described as above. The protocol: as §1

Another assay concerns the target T10, FcgRIIa H (human, UniProt P12318 34-217).
T10 construct: extracellular domain; also called FcγRIIa H; FcγRIIa type H; not shown: His tag attached to the C terminus
T10 sequence (looked up): T3 sequence (looked up) with R134H
The description is as above. The protocol: as §1

For a further assay, the target named is T11, FcgRIIa R (human, UniProt P12318 34-217).
T11 construct: extracellular domain; also called FcγRIIa R; FcγRIIa type R; not shown: His tag attached to the C terminus
T11 sequence (looked up): T3 sequence (looked up)
The assay is described as above. The protocol:
as §1

For the next assay, the target named is T12, FcgRIIb (human, UniProt P31994 43-217).
T12 construct: extracellular domain; Expressed in FreeStyle293 cells and purified; used as analyte in Biacore; also called FcγRIIb; CD32B; not shown: His tag attached to the C terminus
T12 sequence (looked up): T5 sequence (looked up)
Described as above. The protocol:
as §1

Residue numbers refer to the chain shown, from its start. Names may count otherwise. Like-named read-outs stand apart in the source and are kept apart here.

T2 sequence (P08637 17-208): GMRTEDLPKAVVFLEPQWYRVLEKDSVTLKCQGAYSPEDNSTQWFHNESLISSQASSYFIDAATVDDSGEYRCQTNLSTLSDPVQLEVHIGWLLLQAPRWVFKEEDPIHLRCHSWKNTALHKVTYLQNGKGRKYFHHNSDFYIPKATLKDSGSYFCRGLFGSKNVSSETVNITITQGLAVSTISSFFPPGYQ
T7 sequence (P08637 17-208): as above
T1 sequence (P08637 17-208 F176V): as the sequence (P08637 17-208) above, with F160V counted along it
T8 sequence (P08637 17-208 F176V limits assumed): as the sequence (P08637 17-208) above, with F160V counted along it
T6 sequence (P12314 16-292): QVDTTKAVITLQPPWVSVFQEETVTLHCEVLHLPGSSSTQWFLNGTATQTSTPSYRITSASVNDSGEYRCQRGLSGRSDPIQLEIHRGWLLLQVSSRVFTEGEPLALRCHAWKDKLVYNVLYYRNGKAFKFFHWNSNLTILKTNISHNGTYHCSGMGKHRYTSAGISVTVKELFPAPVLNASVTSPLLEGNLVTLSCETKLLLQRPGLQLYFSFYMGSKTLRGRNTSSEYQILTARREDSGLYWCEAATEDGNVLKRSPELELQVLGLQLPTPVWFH
T9 sequence (P12314 16-292): as above

B1: H240-Kn061/H240-Hl071/L73-k0 (antibody, human IgG1, kappa)
heavy 1: QDQLVQSGAEVKKPGASVKVSCKASGFNIKDTYIQWVRQAPGQGLEWMGRIDPLRKQTKYREKFEGRVTITADTSTNTAYMELSSLRSEDTAVYYCVRSGREFDYWGQGTLVTVSSASTKGPSVFPLAPSSKSTSGGTAALGCLVKDYFPEPVTVSWNSGALTSGVHTFPAVLQSSGLYSLSSVVTVPSSSLGTQTYICNVNHKPSNTKVDKKVEPKSCDKTHTCPPCPAPEYYWGPSVFLFPPKPKDTLMISRTPEVTCVVVDVSDEDPEVKFNWYVDGVEVHNAKTKPREEQYNATYRVVSVLTVLHQDWLNGKEYKCKVSNKALPAPIEKTISKAKGQPREPQVCTLPPSRDELTKNQVSLWCLVKGFYPSDIAVEWESNGQPENNYKTTPPVLDSDGSFFLYSKLTVDKSRWQQGNVFSCSVMHEALHNHYTQKSLSLSP
heavy 2: QDQLVQSGAEVKKPGASVKVSCKASGFNIKDTYIQWVRQAPGQGLEWMGRIDPLRKQTKYREKFEGRVTITADTSTNTAYMELSSLRSEDTAVYYCVRSGREFDYWGQGTLVTVSSASTKGPSVFPLAPSSKSTSGGTAALGCLVKDYFPEPVTVSWNSGALTSGVHTFPAVLQSSGLYSLSSVVTVPSSSLGTQTYICNVNHKPSNTKVDKKVEPKSCDKTHTCPPCPAPELLGGPSVFLFPPKPKDTLMISRTPEVTCVVVDVSHEDPEVKFNWYVDGVEVHNAKTKPREEQYNSTYRVVSVLTVLHQDWLNGKEYKCKVSNDALPMPIEETISKAKGQPREPQVYTLPPSRCELTKNQVSLSCAVKGFYPSDIAVEWESNGQPENNYKTTPPVLDSDGSFFLVSKLTVDKSRWQQGNVFSCSVMHEALHNHYTQKSLSLSP
light: DIQMTQSPSSLSASVGDRVTITCRASQDIHKYIAWYQQKPGQAPRLLIQYTSTLQPGVPSRFSGSGSGTDYTFTISSLQPEDIATYYCLQYEQLRTFGGGTKVEIKRTVAAPSVFIFPPSDEQLKSGTASVVCLLNNFYPREAKVQWKVDNALQSGNSQESVTEQDSKDSTYSLSSTLTLSKADYEKHKVYACEVTHQGLSSPVTKSFNRGEC
notes: Kn061: L234Y/L235Y/G236W/H268D/S298A; Hl071: K326D/A330M/K334E; also called H240-Kn061/H240-HI071/L73-k0
As to B1, the Kd (in general, the free concentration of one partner at which half of the binding sites on the other are occupied at equilibrium, for simple one-to-one binding) was 1.8 nM in assay [1]; 5.1 nM in assay [2]; 350 nM in assay [3]; 280 nM in [4]; 1.8 nM in assay [5]; 5.1 nM in assay [6]. In addition, the Kd in assay [7] turned out to be 1200 nM; in [8] it was 0.14 nM.

B2: H240-AK072/H240-BH076/L73-k0 (antibody, human IgG1, kappa)
heavy 1: B1 heavy 1 with D269E, C348Y, D355K, L357M, W365T, H434R
heavy 2: B1 heavy 2 with D269E, C355E, L357M, S365T, A367L, V406Y, K438E
light: B1 light
notes: Heterodimerized anti-EREG IgG1 made with D356K/H435R and K439E in place of knobs-into-holes
For the molecule B2, the Kd was 3.7 nM with FcgRIIIa F [9]; 0.98 nM with FcgRIIIa V [10]; 3.7 nM with FcgRIIIa F [11]; 0.98 nM with FcgRIIIa V [12]; 0.24 nM in the assay with FcgRIa; 130 nM with FcgRIIa H. Moreover, the Kd is 460 nM in the assay with FcgRIIa R and 2900 nM with FcgRIIb.

B3: H240-BH076/L73-k0 (antibody, human IgG1, kappa)
heavy: B1 heavy 2 with D269E, C355E, L357M, S365T, A367L, V406Y, K438E
light: B1 light
notes: Homodimerized anti-EREG IgG1: H240-B3E (K439E) with D270E/K326D/A330M/K334E in both H chains
In the case of B3, the Kd in the assay with FcgRIIIa F [9] was determined as 26 nM; in the assay with FcgRIIIa V [10], 5.3 nM.

B4: H240-Kn132/H240-Hl071/L73-k0 (antibody, human IgG1, kappa)
heavy 1: B1 heavy 2 with Y348C, C355D, S365W, A367L, V406Y
heavy 2: B1 heavy 2
light: B1 light
notes: K326D/A330M/K334E in both H chains (called homodimerized); also called H240-Kn132/H240-HI071/L73-k0
B4: the figures for the Kd in assay [1] and in assay [2] were 16 nM and 77 nM, respectively.

B5: H240-AK072/L73-k0 (antibody, human IgG1, kappa)
heavy: B1 heavy 1 with D269E, C348Y, D355K, L357M, W365T, H434R
light: B1 light
notes: Homodimerized anti-EREG IgG1: H240-A5E (D356K/H435R) with L234Y/L235Y/G236W/H268D/D270E/S298A in both H chains
In the case of B5, the Kd with FcgRIIIa F [9] was 300 nM; in the assay with FcgRIIIa V [10] it was 29 nM.

B6: H240-Kn061/H240-Hl134/L73-k0 (antibody, human IgG1, kappa)
heavy 1: B1 heavy 1
heavy 2: B1 heavy 1 with C348Y, D355C, W365S, L367A, Y406V
light: B1 light
notes: L234Y/L235Y/G236W/H268D/S298A in both H chains (called homodimerized); also called H240-Kn061/H240-HI134/L73-k0
Turning to B6, the equilibrium dissociation constant (Kd) was 86 nM in assay [1] and 660 nM in assay [2].

For the origin of these results see patent US20180155451A1 (published 2018).
